Measurements published in patent US20210054076A1 (Chugai, published 2021).

How the values were obtained:
human CLDN6 [1] = biological target: T1, human CLDN6 (human, UniProt P56747 1-220); test: cell-based or functional assay
T1 sequence: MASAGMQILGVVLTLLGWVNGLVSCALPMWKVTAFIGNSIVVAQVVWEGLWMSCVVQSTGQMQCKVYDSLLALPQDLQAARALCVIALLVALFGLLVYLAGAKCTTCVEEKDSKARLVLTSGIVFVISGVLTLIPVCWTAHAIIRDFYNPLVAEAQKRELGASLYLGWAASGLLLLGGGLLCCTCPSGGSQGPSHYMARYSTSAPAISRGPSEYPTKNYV

human CLDN6 [2] = biological target: T1, human CLDN6; test: cell-based or functional assay; remark: listed apart in the source
hCLDN6(Q156L) = biological target: T2, hCLDN6(Q156L) (human, UniProt P56747 1-220); test: FACS on Ba/F3 transfectant, antibody 20 micro g/ml, FITC anti-human IgG
T2 construct: Stably expressed on Ba/F3 cells; also called human CLDN6 mutant; BaF3_hCLDN6(Q156L)
T2 chain: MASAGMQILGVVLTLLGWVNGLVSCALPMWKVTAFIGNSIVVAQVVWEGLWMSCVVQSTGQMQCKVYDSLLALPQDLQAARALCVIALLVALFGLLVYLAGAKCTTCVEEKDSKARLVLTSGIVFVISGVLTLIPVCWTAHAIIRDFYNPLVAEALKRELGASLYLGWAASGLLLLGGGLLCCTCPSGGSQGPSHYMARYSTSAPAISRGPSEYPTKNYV
Experimental: (§1) To evaluate the binding activity and specificity of the generated CLDN6-TRABs against CLDN6 and other Claudin family antigens, FACS analysis was conducted as follows. Ba/F3 transfectants stably express a kind of protein selected from human CLDN3 (hCLDN3), human CLDN4 (hCLDN4), human CLDN6 (hCLDN6), human CLDN9 (hCLDN9), mouse CLDN3 (mCLDN3), mouse CLDN4 (mCLDN4) and mouse CLDN6 (mCLDN6), were generated using similar method described in WO2008/087978, and named BaF3_hCLDN3, BaF3_hCLDN4, BaF3_hCLDN6, BaF3_hCLDN9, BaF3 mCLDN3, BaF3 mCLDN4, BaF3 mCLDN6, respectively. Each of the CLDN6-TRABs (CH01/CD3, CH02/CD3, CH03/CD3, CH04/CD3) was incubated with the Ba/F3 transfectants at an antibody concentration of 20 micro g/ml in FACS buffer (0.5% BSA containing autoMACS Rinsing Solution, Miltenyl Biotec). Binding activities of each CLDN6-TRAB to the Claudin family proteins (hCLDN3, hCLDN4, hCLDN6, hCLDN9, mCLDN3, mCLDN4, mCLDN6) were examined by incubation of FITC-conjugated goat anti human IgG (BeckmanCoulter), represented as Geo-mean value. Sample processing was conducted on FACSVerse (BD).
(§2) Claudin family proteins have two extracellular domains. The sequence of the first extracellular domain in human CLDN9 is almost the same compared with the first extracellular domain of human CLDN6. For the second extracellular domain of human CLDN9, there are only two amino acids different from the ones at their corresponding positions in human CLDN6 (FIG. 2). The glutamine at position 156 of human Claudin 6 (position 156 in the sequence shown in SEQ ID NO: 44 or 45) was substituted to leucine to make a human CLDN6 mutant comprising the same amino acid as human Claudin 9 at position 156. This human CLDN6 mutant was named as hCLDN6(Q156L) (SEQ ID NO: 53). Ba/F3 transfectant stably express hCLDN6(Q156L) was generated using similar method described in WO2008/087978. The established Ba/F3 transfectant was named BaF3_hCLDN6(Q156L). Binding activity of the generated CLDN6-TRABs against BaF3_hCLDN6(Q156L) was measured using the above mentioned FACS method and the results are shown in FIG. 1 and Table 3.

mouse CLDN6 = biological target: T3, mouse CLDN6 (mouse, UniProt Q9Z262 1-219); test: as above
T3 construct: whole, on cells; also called mCLDN6; BaF3_mCLDN6
T3 sequence (looked up): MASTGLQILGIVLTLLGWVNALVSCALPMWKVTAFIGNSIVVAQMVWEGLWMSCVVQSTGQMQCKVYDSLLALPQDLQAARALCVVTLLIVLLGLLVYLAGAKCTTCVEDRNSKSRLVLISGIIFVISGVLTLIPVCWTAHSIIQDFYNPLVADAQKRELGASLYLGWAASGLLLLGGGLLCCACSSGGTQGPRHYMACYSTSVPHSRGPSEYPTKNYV
Experimental: as §1, §2

human CLDN3 = biological target: T4, human CLDN3 (human, UniProt O15551 1-220); test: as above
T4 construct: whole, on cells; also called hCLDN3; BaF3_hCLDN3
T4 sequence (looked up): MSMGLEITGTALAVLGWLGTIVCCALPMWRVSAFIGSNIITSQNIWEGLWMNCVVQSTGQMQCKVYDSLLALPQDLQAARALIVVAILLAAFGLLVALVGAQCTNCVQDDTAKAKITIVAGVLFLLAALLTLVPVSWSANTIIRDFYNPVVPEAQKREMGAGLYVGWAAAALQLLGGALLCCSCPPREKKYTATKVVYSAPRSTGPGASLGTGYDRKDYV
Experimental: as §1, §2

human CLDN4 = biological target: T5, human CLDN4 (human, UniProt O14493 1-209); test: as above
T5 construct: whole, on cells; also called hCLDN4; BaF3_hCLDN4
T5 sequence (looked up): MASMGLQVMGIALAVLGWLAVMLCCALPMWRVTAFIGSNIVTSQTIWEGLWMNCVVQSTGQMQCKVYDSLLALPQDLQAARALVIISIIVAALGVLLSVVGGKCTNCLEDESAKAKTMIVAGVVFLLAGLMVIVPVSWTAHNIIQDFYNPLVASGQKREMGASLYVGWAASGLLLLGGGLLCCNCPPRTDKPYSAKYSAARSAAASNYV
Experimental: as §1, §2

human CLDN6 [3] = biological target: T1, human CLDN6; test: cell-based or functional assay; remark: listed apart in the source

EC50 (read off the curve), Jurkat/NFAT-RE luciferase reporter, target cells PA-1 (human CLDN6 [1]): ~0.04 nM
EC50 (read off the curve), Jurkat/NFAT-RE luciferase reporter, target cells HuH-7 (human CLDN6 [2]): ~0.08 nM
Geo-mean value of FACS (hCLDN6(Q156L)): 80
Geo-mean value of FACS (mouse CLDN6): 1790
Geo-mean value of FACS (human CLDN3): 36
Geo-mean value of FACS (human CLDN4): 34
EC50 (read off the curve), Jurkat/NFAT-RE luciferase reporter, target cells ABC-1 (human CLDN6 [3]): ~0.06 nM
B1: CH04/CD3 (bispecific antibody, human IgG1, kappa, N297A)
heavy 1: EVQLQQSGPELVKPGASMKISCKASGYSFTGYTMNWVKQSHGKNLEWIGLINPYNGGTIYNQKFKGKATLTVDKSSSTAYMELLSLTSEDSAVYYCARDYGFVLDYWGQGTTLTVSSASTKGPSVFPLAPSSKSTSGGTAALGCLVKDYFPEPVTVSWNSGALTSGVHTFPAVLQSSGLYSLSSVVTVPSSSLGTQTYICNVNHKPSNTKVDKKVEPKSCDKTHTCPPCPAPELRGGPKVFLFPPKPKDTLMISRTPEVTCVVVDVSHEDPEVKFNWYVDGVEVHNAKTKPREEQYASTYRVVSVLTVLHQDWLNGKEYKCKVSNKALPAPIEKTISKAKGQPREPQVYTLPPSREEMTKNQVSLTCLVKGFYPSDIAVEWESNGQPENNYKTTPPYLDSDGSFFLYSKLTVDKSRWQQGNVFSCSVMHEALHNHYTQESLSLSP
light 1: DIVLTQSPSIMSVSPGEKVTITCSASSSVSYMHWFQQKPGTSPKLCIYSTSNLASGVPARFSGRGSGTSYSLTISRVAAEDAATYYCQQRSNYPPWTFGGGTKLEIKRTVAAPSVFIFPPSDEQLKSGTASVVCLLNNFYPREAKVQWKVDNALQSGNSQESVTEQDSKDSTYSLSSTLTLSKADYEKHKVYACEVTHQGLSSPVTKSFNRGEC
heavy 2: QVQLVESGGGVVQPGGSLRLSCAASGFTFSNAWMHWVRQAPGKGLEWVAQIKDKSQNYATYVAESVKGRFTISRADSKNSIYLQMNSLKTEDTAVYYCRYVHYAAGYGVDIWGQGTTVTVSSASTKGPSVFPLAPSSKSTSGGTAALGCLVKDYFPEPVTVSWNSGALTSGVHTFPAVLQSSGLYSLSSVVTVPSSSLGTQTYICNVNHKPSNTKVDKKVEPKSCDKTHTCPPCPAPELRGGPKVFLFPPKPKDTLMISRTPEVTCVVVDVSHEDPEVKFNWYVDGVEVHNAKTKPREEQYASTYRVVSVLTVLHQDWLNGKEYKCKVSNKALPAPIEKTISKAKGQPREPQVYTLPPSRKEMTKNQVSLTCLVKGFYPSDIAVEWESNGQPENNYKTTPPYLDSDGSFFLYSKLTVDKSRWQQGNVFSCSVMHEALHNHYTQKSLSLSP
light 2: DIVMTQSPLSLPVTPGEPASISCRSSQPLVHSNRNTYLHWYQQKPGQAPRLLIYKVSNRFSGVPDRFSGSGSGTDFTLKISRVEAEDVGVYYCGQGTQVPYTFGQGTKLEIKRTVAAPSVFIFPPSDEQLKSGTASVVCLLNNFYPREAKVQWKVDNALQSGNSQESVTEQDSKDSTYSLSSTLTLSKADYEKHKVYACEVTHQGLSSPVTKSFNRGEC
notes: Made by Fab arm exchange of the bivalent anti-CLDN6 antibody CH04 with the bivalent anti-CD3 antibody CD3-1; human IgG1 constant region; One anti-CLDN6 arm and one anti-CD3 arm; also called CLDN6-TRAB; CLDN6-targeted T-cell redirecting bispecific antibody
